Assay results taken from patent US9951373B2, “Oplophorus-derived luciferases, novel coelenterazine substrates, and methods of use” (Promega Corporation, priority 2010, dated 2018).

Key:
[1] = Stability of secreted OgLuc variants in saved media; type: physicochemical; details: secreted variant in saved media
Method: To determine if the secretion signal sequence of OgLuc facilitates its secretion, the OgLuc variants 9B8, V2 and L27V were cloned into pF4Ag containing an N-terminal OgLuc secretion signal sequence. The variants were also cloned into vectors without the secretion signal sequence. CHO or HeLa cells were then plates at 100,000 cells/well in 1 mL F12 media with 10% FBS and 1× sodium pyruvate (CHO cells) or DMEM with 10% FBS and 1× sodium pyruvate (HeLa cells) into 12-well plates and incubated overnight at 37° C., 5% CO2.
After the overnight incubation, the cells were transfected with 1 μg plasmid DNA containing 9B8, V2, or L27V with or without the secretion signal sequence using the TRANSIT®-LT1 transfection reagent (Mirus Bio) and OPTI-MEMO media (Invitrogen). The cells were again incubated overnight at 37° C., 5% CO2.
After the second overnight incubation, the media was removed and saved for analysis. […] To 10 μL of cell lysate or saved media from each sample, 50 μL assay buffer with 40 μM PBI-3939 was added, and luminescence measured as described above.
To determine the stability of the secreted variants, 150 μL aliquots of the saved media from each sample was placed at 37° C. or 50° C. The aliquots were then removed at different time points (0, 1, 2, 3, 5, 6, and 7 […]), frozen on dry ice, and kept at −20° C. until assayed. To assay for stability, the media aliquots were thawed to room temperature, and 10 μL of each aliquot was mixed with assay buffer with PBI-3939 (pH 6.0) as described above. Luminescence was measured as above, and the half-life (t50) determined (Table 34).

[2] = Km of L27V reversion variants, PBI-3939; type: biochemical
Method: Relative activities <1 indicate the reversion is detrimental compared to the residue at that site in the L27V variant. Relative activities >1 indicate the reversion is favorable for activity compared to the residue at that site in the L27V variant. Some additional data on these mutants indicated the following: 166K, 54F, 54A and L27V were tested for thermal stability. The T1/2 60° C. for 166K, 54F, and 54A were 87, 74, and 33%, respectively, indicating these substitutions cause a reduction in thermal stability. […] This indicates higher substrate affinity for L27V, particularly for the position 54 substitutions.

NIH3T3 cells = experiment: Luminescence of OgLuc variants expressed in NIH3T3 cells; type: cell-based
Method: The PCR library in the pF4Ag-based non-fusion background was screened for additional variants with increased luminescence compared to 9B8 opt+K33N+170G (SEQ ID NOs: 68 and 69). Selected variants were then assayed in HEK293 and NIH3T3 cells. For each cell type, 15,000 cells were plated and grown overnight at 37° C. The next day, the cells were transfected as described in Example 25 with 10 ng pGL4.13 (Promega Corp.) as a transfection control and 100 ng of the OgLuc test DNA. The media was removed, and the cells were lysed with 100 μL of lysis buffer as described in Example 25 except the lysis buffer contained 100 mM MES pH 6.0 instead of HEPES, and luminescence measured using a GLOMAX® Luminometer.
Based on the above data, further combination variants were designed and generated (see Table 10) in the context of the pF4Ag-based non-fusion vector background without the 170G. The variants were analyzed in E. coli, HEK293 and NIH3T3 cells as described above and compared to 9B8 opt+K33N. The variants were also examined for luminescence with native coelenterazine.
The brightness of the variants expressed in HEK293 and NIH3T3 cells was measured as described previously. The luminescence of the variants was normalized to the luminescence generated by 9B8 opt (Table 27).

[3] = Luminescence of 9B8 opt+K33N derived variants in E. coli; type: biochemical
Method: Luminescence generated from the lysates was measured using the novel PBI-3939 and native coelenterazine as substrates. The relative specificity of the variants for PBI-3939 and native coelenterazine was calculated as described previously.
A new OgLuc library was created using 9B8opt+K33N as a starting template. The random library was created using DIVERSIFY® PCR Random Mutagenesis Kit (ClonTech; Catalog #630703). Condition 5 (as listed in the user manual) was used to generate additional variants, and the average mutation rate was calculated to be 2.6 mutations per gene by compiling sequence data from 83 randomly selected clones. This PCR library was cloned into the pF4Ag-based, non-fusion vector background described previously and the sandwich background, i.e., Id-OgLuc-HT7 (described in Example 45). Variants in the pF4Ag-base non-fusion vector background are designated with (NF). Variants in the sandwich vector background are designated with (F). In order to clone the PCR product into both vectors, an amino acid, i.e., a glycine, was appended to the variant sequence in pF4Ag, generating a new position 170 in the OgLuc variant (“170G”). The 170G is present in the sandwich construct, but in this case is considered part of the linker between OgLuc and HT7. For each library, 4,400 E. coli clones were assayed as described previously with the following exceptions. […] The assay buffer contained 100 mM MES pH 6.0 instead of HEPES, and 35 mM thiourea. The assay volumes were as follows: 10 μL cells, 40 μL, lysis buffer, and 50 μL, assay buffer.
E. coli lysates containing the variants were prepared and analyzed as described previously. Luminescence generated from the lysates was measured using the novel PBI-3939 and native coelenterazine as substrates. The luminescence of the variants was normalized to the luminescence generated by 9B8 opt (Table 12). The relative specificity of the variants for PBI-3939 and native coelenterazine was calculated by dividing the luminescence of the variants using PBI-3939 as a substrate with the luminescence of the variants using native coelenterazine as a substrate (Table 12).

[4] = relative specificity for PBI-3939 compared to native coelenterazine

B1: L27V: 9B8 opt+K33N variant with L27V, T39T, K43R, Y68D (SEQ ID NO: 89) (protein)
chain: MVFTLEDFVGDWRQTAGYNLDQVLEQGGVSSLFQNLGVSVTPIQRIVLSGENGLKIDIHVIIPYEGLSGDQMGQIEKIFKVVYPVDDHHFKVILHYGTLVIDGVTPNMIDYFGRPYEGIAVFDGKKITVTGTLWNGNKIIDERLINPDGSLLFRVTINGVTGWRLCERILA
[1]
  ½ life 37 C.: 17 days
  ½ life 50 C.: 11 h
[2]
  Km: 18 µM
NIH3T3 cells; PBI-3939
  luminescence normalized to 9B8 opt, NIH3T3: 1.6
NIH3T3 cells; luminescence, PBI-3939
  Fold over 9B8 opt + K33N, NIH3T3: 0.7
NIH3T3 cells; [4]
  Fold over Native Coelenterazine, NIH3T3: 85
[3]; luminescence with PBI-3939 divided by luminescence with native coelenterazine, bacterial lysates
  Fold over coelenterazine: 110
[3]; luminescence with PBI-3939 normalized to 9B8 opt, bacterial lysates
  Fold over 9B8: 1.8
[3]; [4]
  Fold over Native Coelenterazine, E. coli: 85.2
